# According to the supplement of paper PMC6755084:
# B1: minF1; the commonest letter at each place (parent)
# chain: GAGACCGCAACTGAAAAGTTGTTATCAGAAATGGATGGGTTGAATTTCTGCACGTAGAAGCAAAAGGC
# Variants of: B1
# Assay: fraction ligated after 30 min (ligated reads / total reads); higher = more ligase activity
# Settings: with F1*subA RNA substrate (template-directed ligation), 42 °C
# Outline: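 Fraction ligated for every variant was calculated as the share of total reads that came from ligated RNA. Minimized ligase ribozyme variants were made from oligo-pool templates by PCR amplification, T7 transcription and gel purification. After gel separation of ligated and unligated RNAs, reverse transcription with barcoded primers and MiSeq sequencing followed. Only core bases at quality ≥30 passed filtering.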
row,Variant,fraction ligated
1,A31G A35C,0.022
2,A31G A35G,0.294
3,A31G A35T,0.0156
4,T32A T36G,0.00433
5,T32A T36A,0.00173
6,T32A T36C,0.00204
7,T32A A35G,0.0076
8,T32A A35C,0.00546
9,T32A A35T,0.00186
10,A31C A43C,0.0314
11,A31C A43T,0.0946
12,A31C A43G,0.0644
13,A31G G42A,0.367
14,A31G G42T,0.126
15,A31G G42C,0.0118
16,A31T T32G,0.0242
17,A31T T32C,0.0483
18,A31T T32A,0.0898
19,T32A G34A,0.00575
20,T32A G34C,0.0031
21,T32A G34T,0.00436
22,A31G T32C,0.00833
23,A31G T32G,0.0239
24,A31G T32A,0.073

row,Variant,fraction ligated
1,A31C G33T,0.355
2,A31C G33C,0.653
3,A31C G33A,0.767
4,A31C G37T,0.0153
5,A31C G37C,0.00598
6,A31C G37A,0.0105
7,T32C A44T,0.0253
8,T32C A44C,0.0116
9,T32C A44G,0.0172
10,A31C,0.813
11,A31T,0.815
12,A31G,0.805
13,A31T A35T,0.0356
14,A31T A35C,0.0159
15,A31T A35G,0.339
16,T32G A43G,0.196
17,T32G A43T,0.0529
18,T32G A43C,0.00832
19,T32C G33A,0.0169
20,T32C G33T,0.0247
21,T32C G33C,0.0121
22,T32G A35T,0.00401
23,T32G A35G,0.00546
24,T32G A35C,0.00432

row,Variant,fraction ligated
1,T32A A43C,0.0118
2,T32A A43T,0.0778
3,T32A A43G,0.0134
4,A31T T36C,0.0101
5,A31T T36A,0.0236
6,A31T T36G,0.0351
7,T32C A43C,0.00725
8,T32C A43T,0.00881
9,T32C A43G,0.0128
10,A31G G34C,0.00824
11,A31G G34A,0.0934
12,A31G G34T,0.00852
13,A31C A35G,0.199
14,A31C A35C,0.0149
15,A31C A35T,0.0132
16,A30T G33A,0.747
17,A30T G33T,0.387
18,A30T G33C,0.663
19,A31G T36C,0.0127
20,A31G T36G,0.0415
21,A31G T36A,0.0331
22,T32A A44C,0.0377
23,T32A A44G,0.0595
24,T32A A44T,0.163

row,Variant,fraction ligated
1,T32C G34C,0.00341
2,T32C G34T,0.00428
3,T32C G34A,0.00321
4,A31C G42A,0.279
5,A31C G42C,0.00681
6,A31C G42T,0.0885
7,A30T T32C,0.0167
8,A30T T32A,0.0346
9,A30T T32G,0.0154
10,A31T A43T,0.215
11,A31T A43G,0.157
12,A31T A43C,0.157
13,A30T T36A,0.0264
14,A30T T36C,0.0213
15,A30T T36G,0.0328
16,A31G G33T,0.567
17,A31G G33C,0.765
18,A31G G33A,0.811
19,T32C G37A,0.00241
20,T32C G37T,0.00216
21,T32C G37C,0.00446
22,A31C G34A,0.055
23,A31C G34T,0.00764
24,A31C G34C,0.0027

row,Variant,fraction ligated
1,T32A G42A,0.00239
2,T32A G42T,0.00743
3,T32A G42C,0.00255
4,A31G A43T,0.168
5,A31G A43C,0.142
6,A31G A43G,0.101
7,A30T G42T,0.0705
8,A30T G42A,0.202
9,A30T G42C,0.00805
10,A31T A44T,0.814
11,A31T A44G,0.82
12,A31T A44C,0.745
13,T32C A35T,0.0031
14,T32C A35G,0.00362
15,T32C A35C,0.00582
16,A30T G34T,0.00578
17,A30T G34C,0.00584
18,A30T G34A,0.0989
19,T32A,0.0612
20,T32C,0.0302
21,T32G,0.02
22,A31G G37C,0.00462
23,A31G G37T,0.0111
24,A31G G37A,0.00669

row,Variant,fraction ligated
1,A30T G37A,0.00958
2,A30T G37T,0.0219
3,A30T G37C,0.0041
4,A31C T32C,0.0181
5,A31C T32G,0.0132
6,A31C T32A,0.0431
7,A31C T36G,0.0226
8,A31C T36A,0.0194
9,A31C T36C,0.0114
10,A31T G33C,0.689
11,A31T G33T,0.467
12,A31T G33A,0.755
13,A31T G42T,0.193
14,A31T G42A,0.495
15,A31T G42C,0.0234
16,A30T A44T,0.693
17,A30T A44G,0.68
18,A30T A44C,0.52
19,T32C G42C,0.00351
20,T32C G42A,0.00418
21,T32C G42T,0.0036
22,T32C T36A,0.00145
23,T32C T36C,0.00318
24,T32C T36G,0.00825

row,Variant,fraction ligated
1,T32A G33A,0.032
2,T32A G33C,0.0102
3,T32A G33T,0.0384
4,T32G A44C,0.067
5,T32G A44G,0.0444
6,T32G A44T,0.0536
7,A31T G37T,0.0157
8,A31T G37A,0.00615
9,A31T G37C,0.00621
10,T32A G37A,0.000603
11,T32A G37C,0.00322
12,T32A G37T,0.00279
13,A31G A44T,0.804
14,A31G A44C,0.71
15,A31G A44G,0.788
16,A31T G34T,0.0067
17,A31T G34C,0.00659
18,A31T G34A,0.071
19,T32G G33C,0.00893
20,T32G G33A,0.0116
21,A31C A44T,0.794
22,A31C A44C,0.655
23,A31C A44G,0.754
